Data from publication PMC3668751, “Assembly of the Yeast Exoribonuclease Rrp6 with Its Associated Cofactor Rrp47 Occurs in the Nucleus and Is Critical for the Controlled Expression of Rrp47*” (The Journal of Biological Chemistry, 2013).
Values belong to the binder of their own block, whether it stands above or below them.

B2: Recombinant full-length His6-Rrp47 (natural protein, S. cerevisiae, UniProt P38801 1-184, looked up)
chain: MEDIEKIKPYVRSFSKALDELKPEIEKLTSKSLDEQLLLLSDERAKLELINRYAYVLSSLMFANMKVLGVKDMSPILGELKRVKSYMDKAKQYDNRITKSNEKSQAEQEKAKNIISNVLDGNKNQFEPSISRSNFQGKHTKFENDELAESTTTKIIDSTDHIRKASSKKSKRLDKVGKKKGGKK
notes: Rrp47 (also known as Lrp1), S. cerevisiae, full-length recombinant protein; On its own a non-globular homodimer (theoretical homodimer mass 50,920 Da with the tag); One copy stands in the heterodimer with Rrp6NT; also called His-Rrp47; Lrp1; source: for the complex, co-lysed with cells expressing Rrp6NT

Key:
[1] = molecular target: the molecule itself; assay: cross-linking; 0.01% glutaraldehyde on ice, ~40 µM protein, 50 mM HEPES pH 7.6, 300 mM NaCl; SDS-PAGE and Western blot
[2] = molecular target: the molecule itself; assay: AUC; sedimentation velocity, 38,000 rpm, 20 °C, 50 mM Hepes pH 7.6, 500 mM NaCl, 0.25 and 1 mg/ml, absorbance at 280 nm, SEDFIT
[3] = molecular target: B2; assay: pull-down + SEC; E. coli cells expressing His6-Rrp47 or GST-Rrp6NT lysed together; Ni-NTA, then glutathione-Sepharose, then Superdex 200; 50 mM HEPES pH 7.6, 300 mM NaCl; ratio from densitometry of the Coomassie-stained SDS-PAGE of the peak fraction

B1: C-terminally truncated Rrp47NT protein (domain or fragment, S. cerevisiae, UniProt P38801 1-120, looked up)
chain: MEDIEKIKPYVRSFSKALDELKPEIEKLTSKSLDEQLLLLSDERAKLELINRYAYVLSSLMFANMKVLGVKDMSPILGELKRVKSYMDKAKQYDNRITKSNEKSQAEQEKAKNIISNVLD
notes: Rrp47 (Lrp1), S. cerevisiae, N-terminal domain; the discussion gives it as the first 120 amino acid residues; it probably carries a His tag like the full-length protein; also called N-terminal domain of Rrp47; Rrp47NT polypeptide
- stoichiometry N [1]: 2

Binder: B2
- stoichiometry N [2]: 2

- stoichiometry N [3]: 0.8 Rrp6NT per Rrp47
B3: GST-Rrp6NT (domain or fragment, S. cerevisiae, UniProt Q12149 1-211, looked up)
chain: MTSENPDVLLSRVINVVRAASSLASQDVDFYKNLDRGFSKDLKSKADKLADMANEIILSIDEHHESFELKEEDISDLWNNFGNIMDNLLEMSDHSLDKLNCAINSKSRGSDLQYLGEFSGKNFSPTKRVEKPQLKFKSPIDNSESHPFIPLLKEKPNALKPLSESLRLVDDDENNPSHYPHPYEYEIDHQEYSPEILQIREEIPSKSWDDS
notes: Rrp6, S. cerevisiae, N-terminal region (Rrp6NT, holds the PMC2NT domain); The preparation held some proteolytic fragments of the GST fusion; also called Rrp6NT domain; N-terminal region of Rrp6; source: E. coli, co-lysed with cells expressing His6-Rrp47; complex purified (Ni-NTA, glutathione-Sepharose, Superdex 200)
